Data reported in paper PMC10435448, “A RAD51–ADP double filament structure unveils the mechanism of filament dynamics in homologous recombination”.

Biological target: hRAD51 wild-type (Homo sapiens, UniProt Q06609 1-339)
Assay: cryo-EM structure (3.1 A); 1 mM ADP, 5 mM CaCl2, 2.5 mM MgCl2; ssDNA density weak and diffuse; EMSA: 35 mM Tris-HCl pH 7.5, 1 mM DTT, 10 mM MgCl2, 100 ng/ul BSA, 50 mM KCl, 2 mM ADP, 37 C 10 min, 2% agarose TAE at 4 C; cryo-EM: 35 mM Tris-HCl pH 7.5, 108
Settings: protein: recombinant; tags: none stated (pET11, untagged purification); chain copies: 10; single strand

Sequence of hRAD51 wild-type (Q06609 whole entry): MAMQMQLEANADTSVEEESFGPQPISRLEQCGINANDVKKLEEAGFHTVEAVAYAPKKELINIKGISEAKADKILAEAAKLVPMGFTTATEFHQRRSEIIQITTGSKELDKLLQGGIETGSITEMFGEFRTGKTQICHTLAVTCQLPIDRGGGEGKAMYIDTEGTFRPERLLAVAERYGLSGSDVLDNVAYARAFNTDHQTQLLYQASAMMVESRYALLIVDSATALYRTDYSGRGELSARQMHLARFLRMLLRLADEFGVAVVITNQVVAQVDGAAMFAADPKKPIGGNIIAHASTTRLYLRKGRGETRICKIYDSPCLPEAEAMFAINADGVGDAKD

B1: Oligo 1 (80 nt ssDNA), unlabeled (ssDNA)
DNA: TTATGTTCATTTTTTATATCCTTTACTTTATTTTCTCTGTTTATTCATTTACTTATTTTGTATTATCCTTATCTTATTTA
  binding result: binds
